According to patent US10281476B2, “Methods to identify modulators of RyR calcium channels” (REGENTS OF THE UNIVERSITY OF MINNESOTA, priority 2013, dated 2019):

What was measured:
[1] = molecular target: RyR1 (Homo sapiens, UniProt P21817); details: cited from earlier work
[2] = molecular target: RyR2 (Homo sapiens, UniProt Q92736); details: cited from earlier work
[3] = test system: permeabilized cardiomyocytes; test: Ca2+ sparks and SR Ca2+ content in permeabilized myocytes; type: cell-based, rat; details: 5 μmol/L DPc10 with 1 μmol/L CaM or 100 nmol/L FKBP12.6
Description: Myocytes were permeabilized with saponin (50μg/mL) for 60 seconds and placed in internal solution composed of EGTA 0.5 mmol/L; HEPES 10 mmol/L; Kaspartate 120 mmol/L; ATP 5 mmol/L; free MgCl2 1 mmol/L, reduced glutathione 10 mmol/L; and free [Ca2+] 50nmol/L (calculated using MaxChelator), creatine phosphokinase 5 U/mL, phosphocreatine 10 mmol/L, dextran 4% Fluo-4 0.025 mmol/L, pH 7.2. Ca2+sparks were recorded by a laser scanning confocal microscope (RADIANCE2000™ MP, Bio-Rad, UK) as previously described (Li et al., Circ Res, 2002; 90:309-316). Fluo-4 was excited at 488 nm and emission was recorded using 500/530 nm bandpass filter. To assess SR Ca2+content, caffeine (15 mmol/L) was rapidly perfused. Ca2+spark were analyzed as using SparkMaster (Picht et al., Am J Physiol Cell Physiol, 2007; 293:C1073-C1081).
Next, we asked whether RyR2 is activated by DPc10 and whether FKBP12.6 or CaM can prevent this. We assessed Ca^2+ sparks in permeabilized myocytes perfused with internal solution containing 50 nmol/L free Ca^2+ plus 1 μmol/L autocamtide-2-related inhibitory peptide (to inhibit CaMKII activity). Line-scan images were recorded after 3-hour incubations under control conditions and in the presence of 5 μmol/L DPc10, with or without 1 μmol/L CaM or 100 nmol/L FKBP12.6 (FIG. 14D).

[4] = molecular target: T1, RyR2 (Rattus norvegicus, UniProt B0LPN4); test: F-DPc10 wash-in and washout kinetics at the myocyte Z-line; type: binding; parameters: endogenous in cells; host or cells: saponin-permeabilized adult rat ventricular myocytes
Description: To characterize DPc10-binding kinetics at Z-lines, we performed F-DPc10 wash-in (500 nmol/L) and washout experiments in permeabilized myocytes (FIG. 10A). Association (τwash-in=79.0±3.2 minutes) and dissociation (τwashout=149.8±4.4 minutes) were very slow compared with similar FKBP12.6 measurements (Guo et al., Circ Res, 2010; 106:1743-1752). From the wash-in/washout measurements, we calculated the association and dissociation rates constants, kon and koff, respectively, according to the following equation: kwash-in=[F-DPc10]kon+koff where kwashout≈koff and k=1/τ (s^−1). Accordingly, kon=202±20 (L mol^−1 s^−1) and koff=0.11±0.01 (10^−3 s^−1). […] We repeated this kinetic analysis using FRET between FKBP12.6 and DPc10, thus assessing the RyR2-specific DPc10 binding (FIG. 11A AND 11B). […] Based on these kinetic and affinity analyses, we infer that most of the Z-line-specific DPc10 binding is to RyR2. This is also consistent with Bmax, which would imply ≈1 DPc10 per RyR2 monomer.
We were intrigued by the slow kwash-in and conducted measurements to further understand the basis of this slow association. We tested the hypothesis that at resting [Ca^2+]i, DPc10 access to its RyR2 binding site is sterically hindered. If the N-terminal and central domains are tightly zipped to each other, then this interaction may occlude the DPc10-binding site on the RyR2, thus limiting the kon for DPc10. Alternatively, a limiting factor may be the rate at which DPc10 adopts a conformation that can bind to RyR2. To discern between these mechanisms, we determined the effect of [F-DPc10] on τwash-in. If the small fraction of DPc10 in the right conformation limits binding rate, then τwash-in should be faster at higher [F-DPc10], according to Equation. […] Instead, a 10-fold increase in [F-DPc10] had no significant effect on the τwash-in, although it did increase Bmax (FIG. 10B). The same was seen when using FKBP12.6-DPc10 FRET to assess τwash-in with 0.5 vs 5 μmol/L HF647-DPc10 (FIG. 12A AND 12B).
In our working model, under resting conditions, the RyR2 closed state may be stabilized by the interaction between the N-terminal and central domain in the zipped state. We hypothesized that conditions that promote RyR2 opening might enhance the rate of unzipping and accelerate τwash-in for F-DPc10. To test this, we first monitored F-DPc10 wash-in at elevated Ca^2+ (500 nmol/L). However, the 13% faster mean τwash-in was not significant (FIG. 13A). […] Thus, we preincubated myocytes with ryanodine (100 μmol/L) plus caffeine ([…]), which are known to favor long RyR2 openings and were reported to cause RyR2 domain unzipping in HEK293 cells (Liu et al., J Cell Sci, 2010; 123: 1775-1784). Ryanodine+caffeine produced a 21% faster τwash-in (P=0.002; FIG. 13B). However, the most significant effect was seen after presaturating RyR2 with NF-DPc10 (and then NF-DPc10 washout with F-DPc10 present; FIG. 13A). […] Assuming that koff of NF-DPc10 is the same as for F-DPc10 and using Equation, the kon is increased by 3.2-fold by unzipping as a result of prebinding of NF-DPc10 to the RyR2. Our working hypothesis is that the RyR2 open state may increase the probability of an RyR2 shifting to the unzipped state and may allow faster F-DPc10 wash-in. It also seems that the RyR2 open state (favored by caffeine-ryanodine) differs from the unzipped state (bound with DPc10).
Both FKBP12.6 and CaM bind to the RyR2 and can reduce channel opening, which might alter DPc10 binding. […] Neither CaM nor FKBP12.6 pretreatment altered M-line F-DPc10 fluorescence (FIG. 15). […] We infer that CaM stabilizes the domain interaction between N-terminal and central domains in the zipped state and thereby may reduce DPc10 access to its binding site. To test for direct CaM-DPc10 interaction, we performed control FRET measurements between donor-labeled CaM and acceptor-labeled DPc10 in solution in the absence of RyR. The maximal FRET efficiency (<1%) ruled out direct CaM-DPc10 interaction. […]
Target sequence in this assay (B0LPN4 whole entry): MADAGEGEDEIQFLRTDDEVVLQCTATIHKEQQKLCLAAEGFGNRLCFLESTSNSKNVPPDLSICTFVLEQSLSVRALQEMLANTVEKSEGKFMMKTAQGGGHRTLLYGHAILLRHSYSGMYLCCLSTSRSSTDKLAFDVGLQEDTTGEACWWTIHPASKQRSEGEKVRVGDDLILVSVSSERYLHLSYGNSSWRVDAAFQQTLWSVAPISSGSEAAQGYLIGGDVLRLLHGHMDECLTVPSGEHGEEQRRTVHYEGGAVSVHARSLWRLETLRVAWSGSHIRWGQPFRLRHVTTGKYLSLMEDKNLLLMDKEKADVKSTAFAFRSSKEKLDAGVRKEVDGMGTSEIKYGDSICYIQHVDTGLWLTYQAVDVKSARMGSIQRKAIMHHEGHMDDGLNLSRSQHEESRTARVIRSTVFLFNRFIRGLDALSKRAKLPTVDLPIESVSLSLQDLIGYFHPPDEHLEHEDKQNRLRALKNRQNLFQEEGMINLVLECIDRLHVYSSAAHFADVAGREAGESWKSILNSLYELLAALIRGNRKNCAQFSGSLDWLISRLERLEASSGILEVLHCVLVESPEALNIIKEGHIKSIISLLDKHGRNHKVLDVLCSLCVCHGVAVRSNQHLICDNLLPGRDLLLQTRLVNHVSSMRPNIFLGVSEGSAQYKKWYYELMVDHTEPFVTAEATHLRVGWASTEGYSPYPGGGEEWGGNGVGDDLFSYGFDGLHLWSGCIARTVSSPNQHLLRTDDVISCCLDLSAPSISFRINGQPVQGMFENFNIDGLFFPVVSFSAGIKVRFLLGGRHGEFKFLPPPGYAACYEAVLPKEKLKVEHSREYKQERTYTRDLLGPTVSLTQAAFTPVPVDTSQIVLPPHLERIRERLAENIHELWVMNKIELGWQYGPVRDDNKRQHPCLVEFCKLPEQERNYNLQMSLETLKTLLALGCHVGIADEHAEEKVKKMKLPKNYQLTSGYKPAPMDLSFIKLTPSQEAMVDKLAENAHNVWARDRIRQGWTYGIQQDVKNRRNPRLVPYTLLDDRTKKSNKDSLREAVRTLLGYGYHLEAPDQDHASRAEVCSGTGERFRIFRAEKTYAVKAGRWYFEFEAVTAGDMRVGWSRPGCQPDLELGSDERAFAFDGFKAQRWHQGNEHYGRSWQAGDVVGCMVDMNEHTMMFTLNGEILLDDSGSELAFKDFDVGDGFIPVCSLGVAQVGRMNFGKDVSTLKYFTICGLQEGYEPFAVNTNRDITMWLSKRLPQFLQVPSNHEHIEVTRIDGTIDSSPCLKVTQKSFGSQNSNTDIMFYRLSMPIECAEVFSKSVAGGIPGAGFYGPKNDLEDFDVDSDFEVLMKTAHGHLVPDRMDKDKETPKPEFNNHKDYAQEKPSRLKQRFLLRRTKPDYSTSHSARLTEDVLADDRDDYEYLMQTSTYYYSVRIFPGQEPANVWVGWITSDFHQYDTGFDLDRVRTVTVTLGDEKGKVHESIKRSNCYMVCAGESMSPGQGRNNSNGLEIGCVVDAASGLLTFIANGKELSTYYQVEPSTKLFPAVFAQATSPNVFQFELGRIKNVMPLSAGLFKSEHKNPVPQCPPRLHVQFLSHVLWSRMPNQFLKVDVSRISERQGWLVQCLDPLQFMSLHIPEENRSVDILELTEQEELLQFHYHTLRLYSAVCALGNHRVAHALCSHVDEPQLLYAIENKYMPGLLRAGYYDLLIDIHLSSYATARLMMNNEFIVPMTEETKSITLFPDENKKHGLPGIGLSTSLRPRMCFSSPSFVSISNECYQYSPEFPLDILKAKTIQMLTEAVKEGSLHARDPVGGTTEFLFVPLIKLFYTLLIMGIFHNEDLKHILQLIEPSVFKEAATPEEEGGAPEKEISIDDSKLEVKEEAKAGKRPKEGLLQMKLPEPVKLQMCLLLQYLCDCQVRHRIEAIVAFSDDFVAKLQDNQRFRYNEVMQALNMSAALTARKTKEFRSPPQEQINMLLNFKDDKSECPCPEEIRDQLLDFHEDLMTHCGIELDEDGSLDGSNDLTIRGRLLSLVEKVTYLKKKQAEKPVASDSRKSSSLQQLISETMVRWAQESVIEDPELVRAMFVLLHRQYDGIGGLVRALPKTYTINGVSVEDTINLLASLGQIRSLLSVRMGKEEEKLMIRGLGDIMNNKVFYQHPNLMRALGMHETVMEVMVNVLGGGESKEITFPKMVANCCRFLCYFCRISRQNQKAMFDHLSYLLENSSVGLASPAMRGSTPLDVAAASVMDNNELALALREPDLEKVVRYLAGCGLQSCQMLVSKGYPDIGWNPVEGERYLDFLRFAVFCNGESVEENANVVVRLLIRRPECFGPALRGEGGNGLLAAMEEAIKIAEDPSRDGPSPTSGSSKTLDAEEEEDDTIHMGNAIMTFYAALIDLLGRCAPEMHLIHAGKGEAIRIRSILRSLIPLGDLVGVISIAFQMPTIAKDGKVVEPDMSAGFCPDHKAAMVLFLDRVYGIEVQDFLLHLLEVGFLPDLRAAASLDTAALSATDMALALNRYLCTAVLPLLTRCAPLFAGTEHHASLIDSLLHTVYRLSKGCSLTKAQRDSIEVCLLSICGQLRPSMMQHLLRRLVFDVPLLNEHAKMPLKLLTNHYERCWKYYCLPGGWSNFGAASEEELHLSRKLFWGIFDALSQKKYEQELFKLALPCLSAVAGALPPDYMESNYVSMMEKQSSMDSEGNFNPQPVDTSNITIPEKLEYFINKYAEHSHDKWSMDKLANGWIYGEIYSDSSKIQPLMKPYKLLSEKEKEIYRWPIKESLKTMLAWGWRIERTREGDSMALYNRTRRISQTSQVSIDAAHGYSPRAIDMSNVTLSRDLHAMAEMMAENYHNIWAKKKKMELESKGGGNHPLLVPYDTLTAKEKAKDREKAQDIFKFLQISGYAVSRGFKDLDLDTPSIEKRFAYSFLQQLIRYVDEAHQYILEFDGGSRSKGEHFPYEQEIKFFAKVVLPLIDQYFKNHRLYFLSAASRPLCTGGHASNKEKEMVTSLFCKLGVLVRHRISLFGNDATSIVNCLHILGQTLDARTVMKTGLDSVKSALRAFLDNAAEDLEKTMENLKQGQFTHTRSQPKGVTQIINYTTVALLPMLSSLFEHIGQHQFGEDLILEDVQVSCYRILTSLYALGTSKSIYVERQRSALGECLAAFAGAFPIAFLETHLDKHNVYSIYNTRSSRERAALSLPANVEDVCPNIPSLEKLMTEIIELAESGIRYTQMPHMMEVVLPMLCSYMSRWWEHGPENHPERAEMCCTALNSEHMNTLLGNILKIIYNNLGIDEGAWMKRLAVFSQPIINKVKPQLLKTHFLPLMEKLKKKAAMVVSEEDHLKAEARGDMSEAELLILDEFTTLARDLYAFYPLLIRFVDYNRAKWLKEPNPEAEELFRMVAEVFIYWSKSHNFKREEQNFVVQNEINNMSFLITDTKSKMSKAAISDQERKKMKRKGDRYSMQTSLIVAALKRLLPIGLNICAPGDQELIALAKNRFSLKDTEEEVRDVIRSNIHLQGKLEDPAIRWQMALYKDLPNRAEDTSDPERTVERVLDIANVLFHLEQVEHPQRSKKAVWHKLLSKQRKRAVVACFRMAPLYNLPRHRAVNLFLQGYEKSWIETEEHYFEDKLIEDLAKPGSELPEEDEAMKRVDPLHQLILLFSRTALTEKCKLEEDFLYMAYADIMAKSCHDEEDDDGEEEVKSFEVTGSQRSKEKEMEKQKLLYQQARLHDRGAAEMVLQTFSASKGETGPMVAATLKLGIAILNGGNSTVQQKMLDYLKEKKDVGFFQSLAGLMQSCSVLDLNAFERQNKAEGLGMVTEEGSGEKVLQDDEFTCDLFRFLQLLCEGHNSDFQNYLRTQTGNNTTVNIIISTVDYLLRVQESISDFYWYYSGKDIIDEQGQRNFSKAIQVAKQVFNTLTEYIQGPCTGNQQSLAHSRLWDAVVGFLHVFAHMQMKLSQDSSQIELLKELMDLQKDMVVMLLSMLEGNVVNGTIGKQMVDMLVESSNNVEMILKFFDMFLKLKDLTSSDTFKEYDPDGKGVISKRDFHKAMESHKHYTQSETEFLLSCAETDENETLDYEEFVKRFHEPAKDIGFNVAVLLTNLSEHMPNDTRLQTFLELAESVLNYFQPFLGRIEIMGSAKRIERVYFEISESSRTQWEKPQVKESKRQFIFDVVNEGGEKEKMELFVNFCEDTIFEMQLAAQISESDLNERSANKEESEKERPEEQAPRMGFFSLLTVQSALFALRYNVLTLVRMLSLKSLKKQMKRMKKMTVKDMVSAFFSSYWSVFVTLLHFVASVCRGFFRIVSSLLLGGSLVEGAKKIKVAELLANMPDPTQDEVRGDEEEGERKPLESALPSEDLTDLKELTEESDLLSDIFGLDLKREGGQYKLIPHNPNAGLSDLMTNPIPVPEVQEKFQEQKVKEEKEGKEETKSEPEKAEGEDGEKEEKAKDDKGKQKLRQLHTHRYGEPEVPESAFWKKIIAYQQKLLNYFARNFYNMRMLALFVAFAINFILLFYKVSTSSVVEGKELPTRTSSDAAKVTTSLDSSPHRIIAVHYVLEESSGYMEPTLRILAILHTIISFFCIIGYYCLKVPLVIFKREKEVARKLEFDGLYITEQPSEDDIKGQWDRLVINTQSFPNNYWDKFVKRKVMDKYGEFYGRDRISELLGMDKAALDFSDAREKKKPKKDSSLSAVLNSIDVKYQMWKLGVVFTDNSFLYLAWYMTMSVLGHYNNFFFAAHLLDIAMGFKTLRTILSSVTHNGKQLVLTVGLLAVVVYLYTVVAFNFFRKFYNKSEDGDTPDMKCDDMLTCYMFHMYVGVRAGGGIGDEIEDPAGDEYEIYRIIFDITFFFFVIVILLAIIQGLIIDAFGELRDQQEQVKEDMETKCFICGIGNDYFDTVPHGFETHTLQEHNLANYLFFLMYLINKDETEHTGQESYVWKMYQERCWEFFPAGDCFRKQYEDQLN

[5] = molecular target: T1, RyR2; parameters: These fluorescent proteins were added to saponin-permeabilized myocytes with or without pre-equilibration with saturating DPc10 concentration; endogenous in cells; host or cells: saponin-permeabilized rat ventricular myocytes; details: cited from earlier work
Target sequence in this assay (B0LPN4 whole entry): as above
Target sequence in this assay (P68106 with tags, fused parts or gaps T15C/C23A/C77I partner): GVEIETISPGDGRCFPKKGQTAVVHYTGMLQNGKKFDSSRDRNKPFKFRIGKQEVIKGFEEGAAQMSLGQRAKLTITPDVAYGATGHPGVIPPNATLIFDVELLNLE

[6] = molecular target: T1, RyR2; test: Fluorescent FKBP12.6 binding at the Z-line of permeabilized myocytes; parameters: These fluorescent proteins were added to saponin-permeabilized myocytes with or without pre-equilibration with saturating DPc10 concentration; endogenous in cells; host or cells: saponin-permeabilized rat ventricular myocytes
Description: These fluorescent proteins were added to saponin-permeabilized myocytes with or without pre-equilibration with saturating DPc10 concentration. […] We also did this with high [CaM] (500 nmol/L) that saturates RyR2 with CaM under control conditions (without DPc10; FIG. 17C). […] To test whether DPc10 and CaM bind at the same or nearby RyR2 sites, we measured FRET between CaM and DPc10.
FKBP12.6 can bind to and stabilize RyR2 channel gating, but details are controversial (Bers et al., Circ Res. 2012; 110:796-799). We measured the effect of H2O2 on FKBP12.6-RyR2 binding affinity in saponin-permeabilized myocytes using F-FKBP (Yang et al., Circ Res. 2014; 114:295-306; Cornea et al., Proc Natl Acad Sci USA. 2009; 106:6128-6133; Guo et al., Circ Res. 2010; 106:1743-1752; Guo et al., Biophys J. 2011; 101:2170-2177; Cornea et al., J Biol Chem. 2010; 285:19219-19226). […] We used 1 nmol/L F-FKBP (the its Kd) (Guo et al., Circ Res. 2010; 106:1743-1752), because at half-saturation it would be very sensitive to either an increase or decrease in RyR2 binding.
Target sequence in this assay (B0LPN4 whole entry): as the sequence (B0LPN4 whole entry) above
Target sequence in this assay (P68106 with tags, fused parts or gaps T15C/C23A/C77I partner): as the sequence (P68106 with tags, fused parts or gaps T15C/C23A/C77I partner) above

[7] = saturation of RyR2 with CaM 1 μmol/L or FKBP12.6 100 nmol/L, F-DPc10 5 μmol/L

**Q.** Which lower binding affinity [1] does the source give for “FKBP12: FK506-binding protein isoform FKBP12” here?
**A.** ~4 fold

**Q.** And the “lower affinity than FKBP12.6” value [2]?
**A.** ~100 fold

**Q.** With FKBP12.6: FK506-binding protein 12.6 as the substance, how does the “effect on CaSpF activation by DPc10” value [3] read?
**A.** only slightly decreased

**Q.** What about the “effect on F-DPc10 binding” value ([4]; 200-minute incubation with F-DPc10, pretreatment CaM 1 μmol/L or FKBP12.6 100 nmol/L) of the same substance?
**A.** did not alter

**Q.** What about the “effect on Bmax for F-DPc10” value [4, 7] of the same substance?
**A.** did not alter

**Q.** And the “effect on τwash-in of F-DPc10” value [4, 7]?
**A.** did not alter

**Q.** What about the “Bmax of FKBP12.6, previous measurements” value ([5]; cell average fluorescence) of the same substance?
**A.** ≈ 1 μmol/L

**Q.** And the Kd ([5]; read-out: Kd of FKBP12.6 for RyR2)?
**A.** ~1 nM

**Q.** What about the “Bmax for FKBP12.6, reanalyzed using FZ-FM” value [6] of the same substance?
**A.** 1.3 µmol/L
